The values below come from US20200232972A1, “METHOD FOR SCREENING ANTI-AGING SUBSTANCES” (Shiseido Company, Ltd., priority 2017, published 2020).

The assay has as its system young fibroblasts (MMP1 and collagen expression). Briefly: Addition of senescence factor proteins to young fibroblasts: MMP1 and collagen gene expression by RT-PCR. The class given is cell-based, Homo sapiens. As to conditions: protein added at 10 μg/ml vs 0 μg/ml, 2 days; for MMP1 expression: FIG. 4(A); for expression of collagen (Collagen 1 gene): FIG. 4(B). The procedure:
Dermal fibroblasts established from skin from the back of an adult were cultured in Dulbecco's Modified Eagle Medium supplemented with 10% FBS. Cells with a culture period of less than 1 month and Pdl<30 were used as normal fibroblasts (young fibroblasts). These cells were cultured for 3 months or more and cells which began to proliferate more slowly (doubling time less than 0.5/week and Pdl>50) were used as senescent cells. Normal fibroblasts were inoculated on the upper layer of a 6-well transwell system (Falcon; Franklin Lakes, N.J.) filled with Dulbecco's Modified Eagle Medium supplemented with 10% FBS until the density was 1250 cell/cm^2. Subconstructed senescent fibroblasts and normal fibroblasts were separately inoculated in two wells of the lower layer of the transwell system. The upper layer and the lower layer of the transwell system were combined and cultured for 2 days at 37° C. in a humidified atmosphere with 5% CO2, and the cells in the upper layer and the lower layer were recovered using Qiazole (Qiagen).
RNA was extracted from the recovered cell lysate using RNeasy Protect Kit (Qiagen) by following the instructions therefor, then Superscript VILO (Invitrogen) was used to reverse transcribe the RNA into cDNA by following the instructions. Using 28SrRNA as an internal standard, real time PCR was performed with LightCycler (commercially available) using the primer pairs for the following genes. The cycle threshold (Ct value) calculated by Lightcycler software ver. 3.5 was normalized for GAPDH mRNA of each sample.
The proteins of the candidate senescence factors (IGFBP7 and RSPO4) (purchased from Serotec, R&D SYSTEMS) were added to the culture medium for culturing the young fibroblasts at a concentration of 0 μg/ml and 10 μg/ml. After culturing for 2 days, the cells were then separately recovered using Qiazole (Qiagen). In the same way as disclosed in the section relating to quantitative RT-PCR, the expression levels of MMP1 and collagen were examined in the recovered cell lysate.

B1: IGFBP7: Homo sapiens insulin-like growth factor binding protein 7 protein, purchased (Serotec, R&D SYSTEMS), candidate senescence factor (protein, UniProt Q16270 27-282, looked up)
Insulin-like growth …: SSSDTCGPCEPASCPPLPPLGCLLGETRDACGCCPMCARGEGEPCGGGGAGRGYCAPGMECVKSRKRRKGKAGAAAGGPGVSGVCVCKSRYPVCGSDGTTYPSGCQLRAASQRAESRGEKAITQVSKGTCEQGPSIVTPPKDIWNVTGAQVYLSCEVIGIPTPVLIWNKVKRGHYGVQRTELLPGDRDNLAIQTRGGPEKHEVTGWVLVSPLSKEDAGEYECHASNSQGQASASAKITVVDALHEIPVKKGEGAEL
Consider B1, for which the MMP1 expression entry was “increased” and the “expression of collagen (Collagen 1 gene)” value is recorded as “reduced”.

B2: RSPO4: Homo sapiens R-spondin family, member 4 protein, purchased (Serotec, R&D SYSTEMS), candidate senescence factor (protein, UniProt Q2I0M5 20-234, looked up)
R-spondin-4: LNRRKKQVGTGLGGNCTGCIICSEENGCSTCQQRLFLFIRREGIRQYGKCLHDCPPGYFGIRGQEVNRCKKCGATCESCFSQDFCIRCKRQFYLYKGKCLPTCPPGTLAHQNTRECQGECELGPWGGWSPCTHNGKTCGSAWGLESRVREAGRAGHEEAATCQVLSESRKCPIQRPCPGERSPGQKKGRKDRRPRKDRKLDRRLDVRPRQPGLQP
As to B2, the MMP1 expression result is given as “increased” and the “expression of collagen (Collagen 1 gene)” value is given as “reduced”.
